Patent publication US20210301029A1 (LYVGEN BIOPHARMA, published 2021)

T1: human FcγRIIB (human, UniProt P31994 43-310)
T1 construct: whole, on cells; also called CD32b; FcγR2B
T1 sequence (looked up): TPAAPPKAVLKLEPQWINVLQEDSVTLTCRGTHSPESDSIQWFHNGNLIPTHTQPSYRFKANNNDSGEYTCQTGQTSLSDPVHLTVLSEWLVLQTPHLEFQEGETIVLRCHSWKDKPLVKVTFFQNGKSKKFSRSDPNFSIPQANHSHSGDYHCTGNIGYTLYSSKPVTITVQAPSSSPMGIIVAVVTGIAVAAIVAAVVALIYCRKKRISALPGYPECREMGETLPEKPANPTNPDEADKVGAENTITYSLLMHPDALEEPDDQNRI


Experiments:
human FcγRIII = target: T2, human FcγRIII (human, UniProt P08637 17-254); assay: FACS on CHO cells expressing human FcγRIIIA (MFI)
T2 construct: whole, on cells; also called FcγRIIIA; CD16a
T2 sequence (P08637 17-254): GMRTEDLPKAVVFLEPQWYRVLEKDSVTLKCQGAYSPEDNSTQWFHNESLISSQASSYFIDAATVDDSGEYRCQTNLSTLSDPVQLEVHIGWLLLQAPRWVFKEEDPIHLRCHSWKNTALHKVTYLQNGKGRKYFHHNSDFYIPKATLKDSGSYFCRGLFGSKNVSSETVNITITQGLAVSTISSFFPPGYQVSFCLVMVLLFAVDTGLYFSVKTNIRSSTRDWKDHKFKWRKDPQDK
Procedure: (§1) For FACS analysis of the IgG mutants' binding to different FcγRs, FcγR overexpressing CHO cells were harvested using trypsin-EDTA and were suspended in cold staining buffer (3% BSA in PBS). Test IgG mutants, which were diluted in staining buffer, were added into the cells. The mixture was incubated at 4° C. for 2 hours, and then washed twice with cold staining buffer and re-suspended in PE-labeled anti-human IgG followed by incubation at 4° C. for 2 hours. The mixture was washed twice with staining buffer and re-suspended in 2% PFA in PBS for FACS.

human FcγRIIB = target: T1, human FcγRIIB; assay: FACS on CHO cells expressing human FcγRIIB (MFI)
Procedure: as §1

human FcγRI = target: T3, human FcγRI (human, UniProt P12314 16-374); assay: FACS on CHO cells expressing human FcγRI (MFI)
T3 construct: whole, on cells; also called CD64
T3 sequence (P12314 16-374): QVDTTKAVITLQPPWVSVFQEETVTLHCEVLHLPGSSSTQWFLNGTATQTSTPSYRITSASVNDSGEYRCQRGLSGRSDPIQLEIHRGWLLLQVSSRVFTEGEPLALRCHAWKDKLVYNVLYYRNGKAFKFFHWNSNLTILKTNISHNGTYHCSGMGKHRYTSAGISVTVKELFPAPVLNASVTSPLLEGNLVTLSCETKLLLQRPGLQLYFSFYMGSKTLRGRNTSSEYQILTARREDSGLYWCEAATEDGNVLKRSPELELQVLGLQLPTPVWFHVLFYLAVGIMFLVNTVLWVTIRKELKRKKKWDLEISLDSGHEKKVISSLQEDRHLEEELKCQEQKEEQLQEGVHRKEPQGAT
Procedure: as §1

Row | binding result (human FcγRIII) | binding result (human FcγRIIB) | binding result (human FcγRI) | Binder
1 | no binding (tested: 30 µg/mL) | no binding (tested: 30 µg/mL) | no binding (tested: 30 µg/mL) | 383-huIgG2m1 (antibody) heavy: not shown light: DIQMTQSPSSVSASVGDRVTITCRASQGIYSWLAWYQQKPGKAPNLLIYTASTLQSGVPSRFSGSGSGTDFTLTISSLQPEDFATYYCQQANIFPLTFGGGTKVEIKRTVAAPSVFIFPPSDEQLKSGTASVVCLLNNFYPREAKVQWKVDNALQSGNSQESVTEQDSKDSTYSLSSTLTLSKADYEKHKVYACEVTHQGLSSPVTKSFNRGEC
2 | no binding (tested: 30 µg/mL) | no binding (tested: 30 µg/mL) | no binding (tested: 30 µg/mL) | 383-huIgG4m20 (antibody) heavy: not shown light: DIQMTQSPSSVSASVGDRVTITCRASQGIYSWLAWYQQKPGKAPNLLIYTASTLQSGVPSRFSGSGSGTDFTLTISSLQPEDFATYYCQQANIFPLTFGGGTKVEIKRTVAAPSVFIFPPSDEQLKSGTASVVCLLNNFYPREAKVQWKVDNALQSGNSQESVTEQDSKDSTYSLSSTLTLSKADYEKHKVYACEVTHQGLSSPVTKSFNRGEC
3 | no binding (tested: 30 µg/mL) | binds | no binding (tested: 30 µg/mL) | 383-huIgG2m44 (antibody) heavy: not shown light: DIQMTQSPSSVSASVGDRVTITCRASQGIYSWLAWYQQKPGKAPNLLIYTASTLQSGVPSRFSGSGSGTDFTLTISSLQPEDFATYYCQQANIFPLTFGGGTKVEIKRTVAAPSVFIFPPSDEQLKSGTASVVCLLNNFYPREAKVQWKVDNALQSGNSQESVTEQDSKDSTYSLSSTLTLSKADYEKHKVYACEVTHQGLSSPVTKSFNRGEC
4 | no binding (tested: 30 µg/mL) | binds | no binding (tested: 30 µg/mL) | 383-huIgG2m20 (antibody, also called 383-G2m20; 383-IghuG2m20) heavy: not shown light: DIQMTQSPSSVSASVGDRVTITCRASQGIYSWLAWYQQKPGKAPNLLIYTASTLQSGVPSRFSGSGSGTDFTLTISSLQPEDFATYYCQQANIFPLTFGGGTKVEIKRTVAAPSVFIFPPSDEQLKSGTASVVCLLNNFYPREAKVQWKVDNALQSGNSQESVTEQDSKDSTYSLSSTLTLSKADYEKHKVYACEVTHQGLSSPVTKSFNRGEC
5 | no binding (tested: 30 µg/mL) | binds | binds | 383-huIgG1m48 (antibody) heavy: not shown light: DIQMTQSPSSVSASVGDRVTITCRASQGIYSWLAWYQQKPGKAPNLLIYTASTLQSGVPSRFSGSGSGTDFTLTISSLQPEDFATYYCQQANIFPLTFGGGTKVEIKRTVAAPSVFIFPPSDEQLKSGTASVVCLLNNFYPREAKVQWKVDNALQSGNSQESVTEQDSKDSTYSLSSTLTLSKADYEKHKVYACEVTHQGLSSPVTKSFNRGEC
6 | no binding (tested: 30 µg/mL) | no binding (tested: 30 µg/mL) | no binding (tested: 30 µg/mL) | 383-huIgG1m40 (antibody) heavy: not shown light: DIQMTQSPSSVSASVGDRVTITCRASQGIYSWLAWYQQKPGKAPNLLIYTASTLQSGVPSRFSGSGSGTDFTLTISSLQPEDFATYYCQQANIFPLTFGGGTKVEIKRTVAAPSVFIFPPSDEQLKSGTASVVCLLNNFYPREAKVQWKVDNALQSGNSQESVTEQDSKDSTYSLSSTLTLSKADYEKHKVYACEVTHQGLSSPVTKSFNRGEC
7 | no binding (tested: 30 µg/mL) | binds | binds | 383-huIgG1 N297A (antibody, the entry already carries the change) heavy: not shown light: DIQMTQSPSSVSASVGDRVTITCRASQGIYSWLAWYQQKPGKAPNLLIYTASTLQSGVPSRFSGSGSGTDFTLTISSLQPEDFATYYCQQANIFPLTFGGGTKVEIKRTVAAPSVFIFPPSDEQLKSGTASVVCLLNNFYPREAKVQWKVDNALQSGNSQESVTEQDSKDSTYSLSSTLTLSKADYEKHKVYACEVTHQGLSSPVTKSFNRGEC
8 | no binding (tested: 30 µg/mL) | binds | binds | 383-huIgG4SP (antibody, anti-CD40 antibody 383 on a human IgG4 S228P constant region) heavy chain: not shown light chain: DIQMTQSPSSVSASVGDRVTITCRASQGIYSWLAWYQQKPGKAPNLLIYTASTLQSGVPSRFSGSGSGTDFTLTISSLQPEDFATYYCQQANIFPLTFGGGTKVEIKRTVAAPSVFIFPPSDEQLKSGTASVVCLLNNFYPREAKVQWKVDNALQSGNSQESVTEQDSKDSTYSLSSTLTLSKADYEKHKVYACEVTHQGLSSPVTKSFNRGEC
9 | no binding (tested: 30 µg/mL) | binds | no binding (tested: 30 µg/mL) | 383-huIgG2mAA (antibody) heavy: not shown light: DIQMTQSPSSVSASVGDRVTITCRASQGIYSWLAWYQQKPGKAPNLLIYTASTLQSGVPSRFSGSGSGTDFTLTISSLQPEDFATYYCQQANIFPLTFGGGTKVEIKRTVAAPSVFIFPPSDEQLKSGTASVVCLLNNFYPREAKVQWKVDNALQSGNSQESVTEQDSKDSTYSLSSTLTLSKADYEKHKVYACEVTHQGLSSPVTKSFNRGEC
10 | no binding (tested: 30 µg/mL) | no binding (tested: 30 µg/mL) | no binding (tested: 30 µg/mL) | 383-huIgG4m41 (antibody) heavy: not shown light: DIQMTQSPSSVSASVGDRVTITCRASQGIYSWLAWYQQKPGKAPNLLIYTASTLQSGVPSRFSGSGSGTDFTLTISSLQPEDFATYYCQQANIFPLTFGGGTKVEIKRTVAAPSVFIFPPSDEQLKSGTASVVCLLNNFYPREAKVQWKVDNALQSGNSQESVTEQDSKDSTYSLSSTLTLSKADYEKHKVYACEVTHQGLSSPVTKSFNRGEC
11 | no binding (tested: 30 µg/mL) | no binding (tested: 30 µg/mL) | no binding (tested: 30 µg/mL) | 383-huIgG1mAA (antibody) heavy: not shown light: DIQMTQSPSSVSASVGDRVTITCRASQGIYSWLAWYQQKPGKAPNLLIYTASTLQSGVPSRFSGSGSGTDFTLTISSLQPEDFATYYCQQANIFPLTFGGGTKVEIKRTVAAPSVFIFPPSDEQLKSGTASVVCLLNNFYPREAKVQWKVDNALQSGNSQESVTEQDSKDSTYSLSSTLTLSKADYEKHKVYACEVTHQGLSSPVTKSFNRGEC
12 | no binding (tested: 30 µg/mL) | no binding (tested: 30 µg/mL) | no binding (tested: 30 µg/mL) | 383-huIgG4m42 (antibody) heavy: not shown light: DIQMTQSPSSVSASVGDRVTITCRASQGIYSWLAWYQQKPGKAPNLLIYTASTLQSGVPSRFSGSGSGTDFTLTISSLQPEDFATYYCQQANIFPLTFGGGTKVEIKRTVAAPSVFIFPPSDEQLKSGTASVVCLLNNFYPREAKVQWKVDNALQSGNSQESVTEQDSKDSTYSLSSTLTLSKADYEKHKVYACEVTHQGLSSPVTKSFNRGEC
13 | no binding (tested: 30 µg/mL) | no binding (tested: 30 µg/mL) | no binding (tested: 30 µg/mL) | 383-huIgG2m40 (antibody, also called 383-G2m40; 383-IghuG2m40) heavy: not shown light: DIQMTQSPSSVSASVGDRVTITCRASQGIYSWLAWYQQKPGKAPNLLIYTASTLQSGVPSRFSGSGSGTDFTLTISSLQPEDFATYYCQQANIFPLTFGGGTKVEIKRTVAAPSVFIFPPSDEQLKSGTASVVCLLNNFYPREAKVQWKVDNALQSGNSQESVTEQDSKDSTYSLSSTLTLSKADYEKHKVYACEVTHQGLSSPVTKSFNRGEC
14 | no binding (tested: 30 µg/mL) | binds | no binding (tested: 30 µg/mL) | 383-huIgG2G4 (antibody) heavy: not shown light: DIQMTQSPSSVSASVGDRVTITCRASQGIYSWLAWYQQKPGKAPNLLIYTASTLQSGVPSRFSGSGSGTDFTLTISSLQPEDFATYYCQQANIFPLTFGGGTKVEIKRTVAAPSVFIFPPSDEQLKSGTASVVCLLNNFYPREAKVQWKVDNALQSGNSQESVTEQDSKDSTYSLSSTLTLSKADYEKHKVYACEVTHQGLSSPVTKSFNRGEC
